Source: US20230051715A1 (MABWELL THERAPEUTICS, published 2023)

T1: human C1s deletion mutant 2 (NHC) (human, UniProt P09871 16-437)
T1 construct: C-terminal 6xHis tag; also called HuC1s(NHC); huC1sNHC
T1 sequence: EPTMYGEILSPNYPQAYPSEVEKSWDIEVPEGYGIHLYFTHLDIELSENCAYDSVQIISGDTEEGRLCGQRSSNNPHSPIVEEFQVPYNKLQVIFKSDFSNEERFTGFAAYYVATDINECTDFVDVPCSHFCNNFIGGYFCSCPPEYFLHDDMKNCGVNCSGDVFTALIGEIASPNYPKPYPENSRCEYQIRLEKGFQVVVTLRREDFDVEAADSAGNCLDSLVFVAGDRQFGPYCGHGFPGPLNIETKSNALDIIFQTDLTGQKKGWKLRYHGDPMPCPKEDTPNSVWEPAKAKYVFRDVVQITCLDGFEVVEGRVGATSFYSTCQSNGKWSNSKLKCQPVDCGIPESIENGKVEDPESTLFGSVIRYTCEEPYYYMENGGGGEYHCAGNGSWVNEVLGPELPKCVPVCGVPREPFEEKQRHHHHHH

T2: human C1s mutant M20 (A320S) (human, UniProt P09871 16-688)
T2 construct: The entry is the mutant itself
T2 sequence: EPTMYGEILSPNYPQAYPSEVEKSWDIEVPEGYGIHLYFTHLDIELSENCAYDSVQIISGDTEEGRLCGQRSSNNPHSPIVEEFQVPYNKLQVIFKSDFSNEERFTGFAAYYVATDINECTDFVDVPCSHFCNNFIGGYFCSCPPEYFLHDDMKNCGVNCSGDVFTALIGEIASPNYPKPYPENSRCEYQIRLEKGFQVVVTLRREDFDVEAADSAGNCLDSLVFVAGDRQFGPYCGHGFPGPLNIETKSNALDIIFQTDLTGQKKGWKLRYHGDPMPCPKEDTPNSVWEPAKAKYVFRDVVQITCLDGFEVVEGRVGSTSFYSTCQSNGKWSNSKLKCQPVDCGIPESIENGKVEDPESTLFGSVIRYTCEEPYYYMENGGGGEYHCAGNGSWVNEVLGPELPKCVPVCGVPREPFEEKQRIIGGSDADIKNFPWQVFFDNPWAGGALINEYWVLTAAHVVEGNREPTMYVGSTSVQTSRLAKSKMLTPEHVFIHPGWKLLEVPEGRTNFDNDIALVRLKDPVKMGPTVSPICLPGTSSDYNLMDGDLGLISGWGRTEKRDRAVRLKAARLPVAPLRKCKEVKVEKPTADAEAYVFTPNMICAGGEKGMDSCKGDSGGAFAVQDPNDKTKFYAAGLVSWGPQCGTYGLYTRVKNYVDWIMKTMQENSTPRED


How the values were obtained:
[1] = biological target: T1, human C1s deletion mutant 2 (NHC); test: ELISA, plate coated with 200 ng/well HuC1s(NHC), OD450nm
Experimental: (§1) ELISA was carried out by first coating 96-well plates with 200 ng/well of full-length or truncated C1s proteins overnight. The next morning, plates were blocked with SuperBlock T20 blocking buffer (Thermo Scientific 37536) for 1 h with gentle shaking. Then, various concentrations of anti-C1s antibodies diluted in SuperBlock T20 blocking buffer were added to the plates and incubated for 1 h with gentle shaking. Mouse IgG (Sigma-Aldrich 15381) and human IgG1 (BioXCell BP0297) were used as negative controls. The plates were washed before incubating with HRP conjugated secondary antibodies diluted in SuperBlock T20 blocking buffer (goat anti-mouse IgG (H+L) cross-adsorbed secondary antibody HRP (Invitrogen G-21040) or goat anti-human IgG antibody, HRP conjugate (Millipore AP309P)) for 1 h with gentle shaking. At last, the plates were washed and color developed with ELISA liquid HRP substrate (Sigma-Aldrich), followed by stopping the reaction with addition of 1M H₂SO₄ in the same volume as the ELISA liquid substrate. Bound antibody was measured by absorbance at OD₄₅₀ₙₘ.

[2] = biological target: T2, human C1s mutant M20 (A320S); test: ELISA, plate coated with human C1s mutant M20: A320S, OD450nm
Experimental: as §1
Binding of anti-C1s antibodies to mutants M1-M20 of human C1s was measured by ELISA as described in Example 4, and results are shown in FIGS. 6B-6U. All anti-C1s humanized variants including hz2-7(H1L2), hz2-8(H1L2 G80A) and hz2-8(H1L2 G80A/T82A) maintained strong binding properties to the majority (16 out of 20) of C1s mutants including M1 (FIG. 6B), M2 (FIG. 6C), M3 (FIG. 6D). M4 (FIG. 6E), M7 (FIG. 6H), M8 (FIG. 6I), M10 (FIG. 6K), M11 (FIG. 6L), M12 (FIG. 6M), M13 (FIG. 6N), M15 (FIG. 6P), M16 (FIG. 6Q), M17 (FIG. 6R), M18 (FIG. 6S), M19 (FIG. 6T) and M20 (FIG. 6U).

Binder | EC50 [1] | EC50 [2]
Anti-C1s antibody 2-7 (antibody, human IgG1, kappa, V domains shown, the HC/LC entries may hold it too; also called clone 2-7) VH: EVKLEESGGGLVPPGGSMKLSCVASGFTFSNYFMNWVRQSPEKGLEWVAEIRLKFTNYATHYAESVEGRFTISRDDSKSSVYLQMNNLRAEDTGIYYCTRDYGSRNGYFDYWGQGTTLTVSS VL: DIVMTQAAPSVPVTPGESVSISCRSSKSLLHSNGNTFLYWFLQRPGQSPQLLIYRMSNLASGVPDRFSGSGSGTAFTLRVSRVEAEDVGIYYCMQHLEYPYTFGGGTKLEIKT | 9 ng/mL | 
Anti-C1s antibody hz2-8 (H1L2 G80A) (antibody, V domains shown, Humanized variant with G80A in HC CDR2 (already in the entry), human IgG1 / kappa) VH: QVQLVQSGAEVKKPGASVKVSCKASGFNIKEYYMHWVRQAPEQGLEWMGWIDPENADTIYAQKFQGRVTITADTSTNTAYMELSSLRSEDTAVYYCARSRLFFAYWGQGTLVTVSS VL: DIQMTQSPKSLSASVGDRVTITCRASQDVRTALDWYQQKPGQSPKLLIYSASYRYSGVPSRFSGSGSGTDFTLTISSLQPEDFATYYCQQQYTTPYTFGQGTKLEIKR |  | 3 ng/mL
Anti-C1s antibody 2-8 (antibody, V domains shown, the HC/LC entries may hold it too; also called clone 2-8) VH: EVQLQQSGAELVRPGALVKLSCKASGFNIKEYYMHWVKQRPEQGLEWIGWIDPENGDTIYDPKFQGKASITADTSSNTAYLQLSSLTSEDTAVYYCARSRLFFAYWGQGTLVTVSA VL: DIVMTQSHKFMSTSVGDRVSFTCKASQDVRTAVDWYQQKPGQSPKLLIYSASYRYTGVPDRFTGTGSGTDFTFTISSVQAEDLAVYFCQQQYTTPYTFGGGTKLEIKT | 12 ng/mL | 

The next lines start with the values.

EC50 [1] | EC50 [2] | Binder
 | 5 ng/mL | Anti-C1s antibody hz2-8 (H1L2 G80A/T82A) (antibody, V domains shown, Humanized variant with G80A and T82A in HC CDR2 (already in the entry), human IgG1 / kappa) VH: QVQLVQSGAEVKKPGASVKVSCKASGFNIKEYYMHWVRQAPEQGLEWMGWIDPENADAIYAQKFQGRVTITADTSTNTAYMELSSLRSEDTAVYYCARSRLFFAYWGQGTLVTVSS VL: DIQMTQSPKSLSASVGDRVTITCRASQDVRTALDWYQQKPGQSPKLLIYSASYRYSGVPSRFSGSGSGTDFTLTISSLQPEDFATYYCQQQYTTPYTFGQGTKLEIKR
6 ng/mL | 4 ng/mL | Anti-C1s antibody hz2-7(H1L2) (antibody, V domains shown, Humanized, human IgG1 / kappa; also called hz2-7(1L2)) VH: EVQLLESGGGLVQPGGSLRLSCAASGFTFSNYFMNWVRQAPGKGLEWVSEIRLKFTNYATHYADSVKGRFTISRDDSKSTLYLQMNSLRAEDTAVYYCTRDYGSRNGYFDYWGQGTLVTVSS VL: DIVMTQTPLSLPVTPGEPASISCRSSKSLLHSNGNTFLYWFLQKPGQSPQLLIYRMSNLASGVPDRFSGSGSGTDFTLKISRVEAEDVGVYYCMQHLEYPYTFGGGTKLEIKR
